Measurements reported in patent US20260043046A1 (ADVERUM BIOTECHNOLOGIES, published 2026).

B1: Products of pADV1176 (anti-C3 antibody expressed from plasmid pADV1176 in suspension HEK293 cells) (antibody, human IgG1, kappa, V domains shown)
VH: QVQLVQSGAEVKKPGASVKVSCKASGYTFTDFYMDWVRQAPGQRLEWMGYIYPHNAGTTYNQQFTGRVTITVDKSASTAYMELSSLRSEDTAVYYCARRGGFDFDYWGQGTLVTVSS
VL: DIQMTQSPSSLSASVGDRVTITCKASENVDTYVSWYQQKPGKAPKLLIYGASNRYTGVPSRFSGSGSGTDFTFTISSLQPEDIATYHCGQSHSYPLTFGQGTKLEIKR
notes: Full-length humanized human IgG1, tested as unpurified HEK293 supernatant at 0.015 mg/mL; Two copies of each chain is inferred from 'full-length' IgG1; also called humanized anti-C3 antibody; products of AAV2.7m8-pADV1176

What was measured:
[1] = target: T1, human complement C3 (Cat: C2910, Sigma) (human, UniProt P01024 23-1663); assay: BLI (Octet HTX, 25 °C), human IgG1 in buffer against human complement C3
T1 construct: Bought protein; Native C3 is a two-chain (beta/alpha) protein processed from one precursor, so it is written here as one natural entry; also called Complement component 3
T1 sequence (P01024 23-1663 limits assumed): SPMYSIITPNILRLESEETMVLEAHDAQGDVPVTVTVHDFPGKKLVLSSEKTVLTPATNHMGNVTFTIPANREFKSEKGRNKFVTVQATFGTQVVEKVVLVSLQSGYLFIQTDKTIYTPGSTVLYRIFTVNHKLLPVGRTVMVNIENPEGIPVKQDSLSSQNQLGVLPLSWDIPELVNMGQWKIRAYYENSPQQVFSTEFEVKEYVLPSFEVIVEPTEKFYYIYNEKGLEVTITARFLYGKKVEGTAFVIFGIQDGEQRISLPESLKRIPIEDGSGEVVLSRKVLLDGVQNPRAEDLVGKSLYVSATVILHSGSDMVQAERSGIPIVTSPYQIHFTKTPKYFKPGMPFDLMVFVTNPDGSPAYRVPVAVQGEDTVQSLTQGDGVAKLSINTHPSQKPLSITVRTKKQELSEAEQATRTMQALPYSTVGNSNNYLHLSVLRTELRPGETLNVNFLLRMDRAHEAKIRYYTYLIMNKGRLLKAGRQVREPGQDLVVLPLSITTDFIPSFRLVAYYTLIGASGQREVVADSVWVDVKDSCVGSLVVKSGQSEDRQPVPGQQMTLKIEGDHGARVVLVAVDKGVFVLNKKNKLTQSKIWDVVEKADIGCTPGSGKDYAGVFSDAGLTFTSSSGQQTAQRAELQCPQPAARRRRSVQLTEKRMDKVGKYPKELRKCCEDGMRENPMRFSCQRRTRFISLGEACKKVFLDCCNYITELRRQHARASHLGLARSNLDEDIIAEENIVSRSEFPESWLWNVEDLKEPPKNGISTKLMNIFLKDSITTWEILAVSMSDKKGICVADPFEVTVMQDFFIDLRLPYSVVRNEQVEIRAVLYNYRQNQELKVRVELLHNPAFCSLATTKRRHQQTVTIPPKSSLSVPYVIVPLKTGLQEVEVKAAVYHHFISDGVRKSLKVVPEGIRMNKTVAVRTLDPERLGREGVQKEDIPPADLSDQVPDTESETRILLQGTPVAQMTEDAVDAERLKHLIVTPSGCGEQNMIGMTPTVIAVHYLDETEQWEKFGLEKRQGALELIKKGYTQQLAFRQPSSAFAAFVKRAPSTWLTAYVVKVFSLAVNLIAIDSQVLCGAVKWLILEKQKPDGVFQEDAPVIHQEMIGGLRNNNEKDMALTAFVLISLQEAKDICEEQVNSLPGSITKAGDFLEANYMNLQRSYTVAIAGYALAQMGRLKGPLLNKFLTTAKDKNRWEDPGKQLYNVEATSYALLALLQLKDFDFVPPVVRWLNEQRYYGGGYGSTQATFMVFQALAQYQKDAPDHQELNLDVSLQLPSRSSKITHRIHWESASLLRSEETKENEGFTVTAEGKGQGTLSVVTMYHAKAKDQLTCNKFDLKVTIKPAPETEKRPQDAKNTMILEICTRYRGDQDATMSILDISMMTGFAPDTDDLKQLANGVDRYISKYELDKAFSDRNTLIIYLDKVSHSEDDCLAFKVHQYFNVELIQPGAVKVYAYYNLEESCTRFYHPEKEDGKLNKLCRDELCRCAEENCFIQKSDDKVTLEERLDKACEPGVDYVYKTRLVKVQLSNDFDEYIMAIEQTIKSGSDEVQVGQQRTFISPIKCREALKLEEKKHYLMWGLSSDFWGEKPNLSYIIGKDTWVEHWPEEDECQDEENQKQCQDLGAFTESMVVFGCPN

[2] = target: T1, human complement C3 (Cat: C2910, Sigma); assay: BLI (Octet HTX, 25 °C), HEK293 supernatant against human complement C3
Method: Supernatant from suspension HEK293 cells transfected with vector carrying gene encoding anti-C3 antibody (cell culture and transfection methods can be found in previous section) were used for kinetics analysis via Octet (BLI) to measure binding affinity to human complement C3 (Cat: C2910, Sigma). Binding experiments were performed on Octet HTX at 25° C. by LakePharma (Redwood City, CA). There were three test articles including products of pADV1176 (0.015 mg/mL), negative control (supernatant from untransfected cells) and positive control (human IgG1 in buffer—137 mM NaCl, 2.7 mM KCl, 10 mM Na₂HPO₄, 2 mM KH₂PO₄, pH 7.4, 0.98 mg/mL).

Molecule	Kd [1] [nM]	koff [1] [s⁻¹]	kon [1] [M⁻¹ s⁻¹]	Kd [2] [nM]	koff [2] [s⁻¹]	kon [2] [M⁻¹ s⁻¹]
Positive control (human IgG1 in buffer, 0.98 mg/mL) (antibody)	0.256	4.92e-05	193000			
B1				0.13	2.67e-05	206000
